Results published in the supplement of paper PMC12042874.
± gives the uncertainty stated by the source.

Test: amyloid nucleation score (Sup35N fusion, yeast selection) (log enrichment); library NNK1; higher = more nucleation; inactive = no reads after selection
In short: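 Using DiMSum, nucleation scores were taken as the log enrichment of output over input reads, centred on the mode score of non-aggregating sequences. The input and output reads came from Illumina sequencing of plasmid inserts, with sequences under 100 input reads excluded. The yeast were psi-negative, expressed Sup35N fused to peptides of 20 random codons, were induced with 100 μM copper sulfate for 24 hours, and were grown 7 days at 30°C on medium lacking adenine and uracil.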

Substance	amyloid nucleation score
KCLTFHVSNVFITANPLCLL	5.936 ± 0.054
KCWPLLRITSVCVFAFTGER	0.937 ± 0.58
KEGRPQSTLCNVVRGFREQY	-0.565 ± 0.7
KENRFISQSDTALYSIKKQH	0.549 ± 1
KETSVSLHEDGIYCGFITSN	0.187 ± 0.28
KFRESFLT	-1.32 ± 0.94
KGDNVEIMQTFDKSCLDIGA	inactive
KGDVPGYARCEVKTVRTFWM	0.231 ± 0.41
KGFLRFG	0.333 ± 0.38
KGKAAT	-0.534 ± 0.87
KGLCDNVMDLVRLKGGSEAG	0.443 ± 0.42
KGLEPLCLRSFFLWRERFRD	-0.686 ± 0.49
KGLGRF	-0.788 ± 0.74
KGLLTGSCVDSS	-0.015 ± 0.51
KGWLKTGVYGHVSFVGNIME	0.467 ± 0.75
KHCTRFRVRRMYYDVTKILL	inactive
KHSGFQTCVNYLD	-0.194 ± 0.42
KIGLPGLCVW	0.063 ± 0.54
KIGWL	-0.555 ± 0.58
KKGVIGKG	-2.31 ± 1.6
KKLVA	0.286 ± 0.43
KKPCVTGYRKNRWEELEP	-0.393 ± 0.42
KKPQSGSCTRLSSESYKSVY	0.464 ± 0.82
KKRPPAPSMEVRLGARMVAG	0.324 ± 1
KLGTPLRQSDVS	-0.461 ± 0.59

Substance	amyloid nucleation score
KLIRYYRFACVMSFRVFYSF	inactive
KLIYLMGPIPWVLRSCWQVF	0.208 ± 0.37
KLSGFKFEVTCDGHEFWGHP	1.08 ± 0.54
KLSSKWTRACRHNSC	-0.134 ± 1.3
KLVVKWRGFLEDGDRTLWLV	3.49 ± 0.13
KMFVIVWCDFDAGALGATVN	-0.488 ± 0.58
KMKSEDT	1.07 ± 0.25
KMLNISGDTMWYVILVLRYV	-0.292 ± 0.56
KMTCSPSH	0.867 ± 0.88
KNCPALRSFSSKDSSSFVWS	-0.23 ± 0.43
KNPLVIKKRF	0.204 ± 0.59
KNWARIMRNRNYSVSAILW	0.163 ± 0.61
KPGFYT	-0.705 ± 0.92
KPKCNHRDRTSLEILRNNAL	1.35 ± 0.43
KPLCLNYKCLYIILVCVGDP	0.151 ± 0.27
KQCGVKWFMAG	0.437 ± 1.4
KREKEYFNERLPTDLSLQRC	-1.21 ± 0.66
KRGLAVLGAPKQMQTACWGQ	0.229 ± 0.83
KRIVCMFSWPSLT	-0.921 ± 0.88
KRSNSFL	0.319 ± 0.27
KRTESKLDYFKVRLCRTRFS	0.122 ± 0.43
KRTLYSSIRF	1.74 ± 0.15
KSLVNNCDSVIAL	0.506 ± 0.25
KSRFSDGGSSWFCGTFMFYT	-0.723 ± 0.42
KSRRSCQQLIIVKHVVHARR	4.08 ± 0.061

Substance	amyloid nucleation score
KSSGALDMFSDTNMV	-0.894 ± 0.39
KSTLVKHLNQYYRLVLMGPL	1.1 ± 0.54
KSTSYNLIDIMAGSSLTNNR	0.274 ± 0.28
KSTTYKNLPSHGLRNSICTK	0.842 ± 0.69
KSYNWDYGHLRVNYGGHMMI	-0.544 ± 1.4
KSYYGSLNLAMSTSLYIQTM	0.769 ± 0.34
KTFTNGLCDPDVYGTIWAM	0.488 ± 0.36
KTFVPWISCATSIEVFYVAS	1 ± 0.54
KTGCVGTS	inactive
KTLSLLIL	0.387 ± 0.37
KTTLCM	-0.088 ± 0.39
KTWLIG	0.109 ± 0.54
KTWRHSFLYFLTGIESRKGA	0.094 ± 0.26
KVALESSRAV	0.036 ± 0.88
KVASSDMSDLSTH	inactive
KVFGTRPSQCLGFN	-0.806 ± 0.65
KVFISCYLWYA	3.8 ± 0.072
KVIRVYRADCCFTGWHFAVA	-0.224 ± 0.77
KVISFYS	3.21 ± 0.083
KVLITCCGPKWSCSLAPDEL	0.668 ± 0.58
KVLLIRWDLLC	0.291 ± 0.46
KVLNILYWGRTDVG	1.41 ± 0.33
KVLNVCRL	inactive
KVLSIRWECPLECFALQSYV	0.042 ± 0.32
KVLSYWDVSWGMASRFVSCY	0.724 ± 0.49

Substance	amyloid nucleation score
KVPYLVDYISLVFFVFKVLF	-0.388 ± 0.34
KWNLGYIYMYRATIK	1.44 ± 0.84
KWQEQGVIFSNFLLHRHWDV	-1.23 ± 1.6
KYDRNFNTRWGTKDVWTLAD	-0.065 ± 0.57
KYGEVLLVTYTNP	0.577 ± 0.53
KYKFVRANLILFGMVRG	-0.115 ± 0.25
KYSLNM	-0.872 ± 1.4
LAFDYLLKFLDCR	-0.47 ± 0.53
LAFTCFH	0.568 ± 0.28
LAGMMHAPVVLGLWSCDGDG	-0.974 ± 2.4
LAGMTSKHFTLRMMSHLDSY	0.043 ± 1
LAHLCINIVSKCSNSWTIGT	0.55 ± 0.57
LALVRVIGDKNRWWRILSVW	0.708 ± 0.58
LAMLSNGSFNGLFLLWSRCH	0.525 ± 0.35
LANIYSSNVDISFFDPYCST	4.35 ± 0.085
LANLAVHLLGQGETCIQMFL	1.76 ± 0.4
LAPISSASLQTFPVAIFRFR	0.122 ± 0.43
LARDRFTYLAASYPFTPSRA	-0.761 ± 1.7
LARLLNGQVGNDYCPGVPGG	-0.543 ± 0.4
LAWMWYQGVSLRNKGGGMFY	-0.659 ± 1
LAWTSRDWRKFEYIMGIWGI	-1.01 ± 2.4
LAWYFTPFVDHS	1.13 ± 0.84
LCARFWDCRFKVQ	0.142 ± 1.4
LCDDHRPELCVYIVWTVVGE	3.19 ± 0.22
LCELNSKAVYGSKMAHCYSS	-0.151 ± 0.33

Substance	amyloid nucleation score
LCGTSGCSIRNLV	0.026 ± 0.46
LCKIKESNDLFSARSIVAHQ	1.06 ± 0.59
LCLDKQSSCGSMMSGIYDLM	-0.064 ± 0.28
LCMLWLKVKRHRDMRSIGIW	-0.003 ± 0.42
LCPGNMLLLITDQYSNWEEI	0.068 ± 0.3
LCQSYGCFVPYYLYDFHRVV	6.521 ± 0.059
LCRVVGYRSPHWQVRGLSVV	-0.215 ± 1.7
LCSLVFTIRRTPPWVQSMLR	0.096 ± 0.8
LCSWADLDNKDLKSPR	0.102 ± 0.43
LCVEVS	0.369 ± 0.42
LCVSCARVKLLNRT	-0.144 ± 0.55
LCWFWGYVISYREMIYAESV	inactive
LDDWRVMLVSANMHHVRC	-0.642 ± 0.39
LDEYINNEDSMFLCGILLSS	0.2 ± 0.3
LDFRGMALENKVLDFRVCSV	0.658 ± 0.3
LDIVWVDSVIVISLMMLTYC	0.199 ± 0.39
LDLNRFDPWVVTSLLCFPVA	-1.42 ± 1.5
LDRFCYLVYRRRCGYSRWQM	0.527 ± 0.39
LDRLMESGDFGWKYIMG	inactive
LDRVSWSDRKSNGQ	1.44 ± 0.41
LDTRSRSYVWSDLLRKAKAK	0.795 ± 0.6
LDVFICTADHTVRYLHHTAV	1.08 ± 0.66
LDVLWTGSRSAAA	-0.05 ± 0.38
LDVNLGYCHVVYWTIVKVRL	inactive
LEAMPMCGEELRSLYTMVNV	0.552 ± 0.42

Substance	amyloid nucleation score
LEDNMEFDFKSRKDSNLCNG	0.611 ± 0.34
LEGKPSEFYRNFHIYGVVYQ	-0.531 ± 1.4
LEINIVACVDTA	-0.559 ± 0.36
LESRFRKMFPRVVRDTWGRG	-0.628 ± 1.7
LEWANDLVNCSQRIM	-0.331 ± 0.88
LEYENCHCIILYLKHAQYLL	inactive
LEYSS	-0.145 ± 0.41
LEYYLVWYNVYL	0.534 ± 0.19
LFASESRWSRRYMFPWCRLC	-0.445 ± 0.91
LFFQANKLLVIYNCRIYTTF	6.32 ± 0.07
LFFQSDMFGVFCISYTTGVS	0.323 ± 0.32
LFGTS	0.501 ± 0.51
LFIFFKV	0.049 ± 0.51
LFKFYCKTYHTPLSLIYPFW	inactive
LFLFLRMLTFVTCLIMRLRV	-1.73 ± 2.4
LFLGLPELVQNSLDMLVSLW	0.217 ± 0.31
LFLWDVFGQLAFVRVGTICW	1.14 ± 0.56
LFMLSIHFGVHILSRLW	1.57 ± 0.16
LFMNCLILRMFTCAFHNSSE	6.39 ± 0.078
LFNKNGYNSETRFLFKLGFD	1.02 ± 0.56
LFNMFDQITCIVDSDNYRHA	0.116 ± 0.25
LFNWVTSCSGTINGWKIKRH	3.08 ± 0.12
LFQCASWM	-0.024 ± 0.29
LFRGFWSERSTVSMLFRSRR	-0.124 ± 0.83
LFRLIAFWDWLYSWNRFFGW	0.481 ± 0.43

Substance	amyloid nucleation score
LFRSRRLVCDMKFHWTFLYR	-0.853 ± 0.5
LFSWVCIFECLPFKNWSQTV	inactive
LFTIMMQPMGCHPCRPLASQ	0.082 ± 0.52
LFTTFNNLISVFTVVLNSNQ	6.79 ± 0.076
LFVSNMC	-1.47 ± 0.91
LFVVFHALTIFYP	-0.437 ± 1.2
LFYSNMIVTVSRSVVRMRGA	0.659 ± 0.79
LGATGIGVYTVGHTFKS	-0.382 ± 0.44
LGCYTLESLGEYDNSNNWLL	0.932 ± 0.69
LGDTVCVRYCR	0.223 ± 0.37
LGFACLSIILSRKSKMWDML	2.13 ± 0.11
LGISPVSTGKKVNEDVYSGF	0.618 ± 0.79
LGNCTGRRHV	2.42 ± 0.36
LGNLM	-0.109 ± 0.95
LGTCPYSPPEANN	-0.604 ± 0.5
LGVAFQRYVCICEVVSLSRG	0.523 ± 0.32
LGWRSTFCMKYTSQSLSLPR	-0.221 ± 0.58
LHMLKMICKVVNRVSYS	-0.098 ± 0.23
LHRALGQSSWWARQW	-0.13 ± 1
LHRRNSCSIYRLLGFCLLPI	1.25 ± 0.6
LHSNGSD	inactive
LHTMCGK	0.03 ± 0.97
LICAAAKLIHGWGNKWIYVT	-0.368 ± 1.7
